Reference: patent publication US20220235138A1, “CAR-T CELLS TARGETING IL-1RAP AND THEIR USE IN ACUTE MYELOID LEUKEMIA (AML)” (ETABLISSEMENT FRANCAIS DU SANG, priority 2019, published 2022)
Several values for one entry are separate records, joined by “and”; a condition that tells them apart may be missing. Equal values may be shown once.

What was measured:
IL-1RAP [1] = test: Immunostaining of FDA standard frozen normal tissue array; format: binding, human; set-up: key to Staining intensity (0 to 3+): negative (0); weak staining (1+); moderate staining (2+); strong staining (3+); conditions: for Staining intensity (0 to 3+): replicates
Sequence of IL-1RAP (Q9NPH3 21-570): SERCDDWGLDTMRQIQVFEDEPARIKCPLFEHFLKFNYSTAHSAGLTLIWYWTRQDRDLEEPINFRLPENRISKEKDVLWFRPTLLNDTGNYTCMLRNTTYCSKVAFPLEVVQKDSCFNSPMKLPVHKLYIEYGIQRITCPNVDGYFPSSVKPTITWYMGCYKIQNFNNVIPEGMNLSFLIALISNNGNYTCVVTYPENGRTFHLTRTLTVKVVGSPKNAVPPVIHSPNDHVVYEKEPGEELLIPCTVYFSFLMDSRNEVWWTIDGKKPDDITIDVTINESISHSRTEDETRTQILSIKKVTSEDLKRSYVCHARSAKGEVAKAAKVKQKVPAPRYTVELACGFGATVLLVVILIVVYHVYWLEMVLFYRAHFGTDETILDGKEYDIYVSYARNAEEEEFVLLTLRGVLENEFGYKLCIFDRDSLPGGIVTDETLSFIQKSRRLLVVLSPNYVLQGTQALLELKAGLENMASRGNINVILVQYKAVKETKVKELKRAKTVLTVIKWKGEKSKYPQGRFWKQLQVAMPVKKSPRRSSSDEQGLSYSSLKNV
From the text: FIG. 13: (A) Tissue microarray. Representative #A3C3 staining of an US Food and Drug Administration standard frozen tissue array, including 90 tissue cores (30 organs) of 3 individual donors per organ (US Biomax, Rockville, Md., USA). Immunostaining was detected using the UltraView Universal DAB Detection Kit (Ventana, USA). Images were acquired and analyzed with NDP.view 2.0 software. […] (Scale bars, 100 μm.) High IL-1RAP (KU812) or negative (Raji)-expressing cell lines were respectively used as positive or negative controls. (B) IL-1RAP R&D (red) or #A3C3 (blue) staining of HMEC-1 dermal endothelial cell line. Isotype IgG1 (gray) is depicted as overlay. RFI is provided for both staining.
In order to study specific or non-target tissue binding, FDA standard frozen tissue arrays, including 90 tissue cores (30 organs) of 3 individual donors per organ (US Biomax, Rockville, United States) were incubated as previously described. Immunostaining was detected using UltraView Universal DAB Detection Kit (Ventana, USA). Images were acquired and analyzed with NDP.view 2 software. High IL-1RAP (KU812) or negative (Raji) expressing cell lines were respectively used as positive or negative controls. The staining intensity was graduated as follows: negative (0), weak staining (1+), moderate staining (2+), or strong staining (3+). […]

IL-1RAP [2] = test: Hybridoma screening by FACS against IL-1RAP-positive and -negative cell lines; format: binding, human; conditions: compared among the 5 subclones
From the text: Briefly, BALB/c mice (5 weeks, Charles River) were immunized either by foot pad (n=3) or intraperitoneally (n=5) with a recombinant fusion protein consisting of the extra cellular part of IL-1RAP (NM_002182.2, NCBI) and the Fc-part of human IgG1 (R&D Systems, Lille, France). Lymph nodes or spleens cells and blood samples were harvested and cells were fused with the mouse myeloma cell line, then screened by FACS analysis Becton Dickinson)(, against IL-1RAP-positive (KU812) and -negative (Raji, KG1) cell lines.
Screening of hybridoma allowed to select 5 monoclonal antibodies subclones that discriminate IL-1RAP positive (KU812 or KG-1 respectively AML or Phi^+p^210 CML) from negative cell lines (Tom-1, NALM-20, Jurkat or Raji, respectively Phi+^p190 B-ALL, Phi^−B-ALL, T-ALL or Burkitt's lymphoma).
Molecular characterization was performed by Sanger sequencing of cloned PCR products amplification obtained with degenerated primers specific of the FR1 and constant regions of the heavy and light chains according to the protocol of Wang. Z. et al (J. Immunol. Methods, 2000; 233, pages 167-77). […] The monoclonal antibody subclone (#E3C3) was chosen, since it gave the highest relative fluorescence intensity (RFI) by cytometry.

B1: #A3C3: mouse anti-hIL-1RAP monoclonal antibody generated by standard hybridoma technique; VH SEQ ID No 2, VL SEQ ID No 4 (antibody, V domains shown)
VH: MGWSCIILFLVATATGVNSQVQLQQPGAELMMPGASVKVSCEASGYTFTDSWMHWVKQRPGQGLEWIGAIDPSDSYTTYNQKFTGKATLSVDESSNTAYMQLSSLTSEDSAVYYCARYYSGSNYISPFPYWGQGTLVTVSA
VL: MESQIQVFVFVFLWLSGVDGDIVMTQSHKFMSTSVGDRVTITCKASLDVSTAVAWYQQKPGQSPKLLIYSASYRYTGVPDRFTGSGSGTDFTFTISSVQAEDLAVYYCQQHYSPPFTFGSGTNLEIK
modifications: Amino acid sequence of chain H (VH) of murine scFv anti-IL-1RAP; Amino acid sequence of chain K (VL) of murine scFv anti-IL-1RAP
IL-1RAP [1]; Adrenal gland
  Staining intensity (0 to 3+): 0
IL-1RAP [1]; Cerebellum tissue
  Staining intensity (0 to 3+): 0
IL-1RAP [1]; Colon
  Comments: stained epithelial cells: Epithelial cells (~30%);
  Comments: stained inflammatory elements: (100%)
  Staining intensity (0 to 3+): 3+
IL-1RAP [1]; Esophagus
  Staining intensity (0 to 3+): 0
IL-1RAP [1]; Heart
  Staining intensity (0 to 3+): 0
IL-1RAP [1]; Kidney
  Staining intensity (0 to 3+): 0
IL-1RAP [1]; Liver
  Staining intensity (0 to 3+): 0
IL-1RAP [1]; Lung
  Comments: stained elements: Few inflammatory elements
  Staining intensity (0 to 3+): 2+
IL-1RAP [1]; Lymph node
  Comments: stained endothelial cells: ~30% of endothelial cells
  Staining intensity (0 to 3+): 2+ and 1+
IL-1RAP [1]; Ovary
  Staining intensity (0 to 3+): 0
IL-1RAP [1]; Pancreas
  Staining intensity (0 to 3+): 1+
IL-1RAP [1]; Peripheral nerve
  Staining intensity (0 to 3+): 0
IL-1RAP [1]; Pituitary gland
  Staining intensity (0 to 3+): 0
IL-1RAP [1]; Placenta
  Comments: stained cytotrophoblast cells: Cytotrophoblast cells (~10%)
  Staining intensity (0 to 3+): 0
IL-1RAP [1]; Prostate
  Comments: stained endothelial cells: ~10% of endothelial cells
  Staining intensity (0 to 3+): 1+ (2×) and 0 (4×)
IL-1RAP [1]; Salivary gland
  Staining intensity (0 to 3+): 0
IL-1RAP [1]; Skeletal muscle 1
  Comments: stained endothelial cells: ~10% of endothelial cells
IL-1RAP [1]; Skeletal muscle, first listing
  Staining intensity (0 to 3+): 1+ and 0 (2×)
IL-1RAP [1]; Skeletal muscle, second listing
  Staining intensity (0 to 3+): 0
IL-1RAP [1]; Skin
  Staining intensity (0 to 3+): 0
IL-1RAP [1]; Small intestine
  Comments: stained epithelial cells: Epithelial cells (~30%);
  Comments: stained inflammatory elements: (100%)
  Staining intensity (0 to 3+): 2+ and 0 and 1+
IL-1RAP [1]; Smooth muscle
  Staining intensity (0 to 3+): 0
IL-1RAP [1]; Spinal cord
  Staining intensity (0 to 3+): 0
IL-1RAP [1]; Spleen
  Comments: stained elements: Necrotic elements
  Staining intensity (0 to 3+): 3+
IL-1RAP [1]; Stomach 1
  Comments: stained epithelial cells: cells <10%
  Comments: stained gastric mucosa cells: (~10%); few epithelial
IL-1RAP [1]; Stomach
  Staining intensity (0 to 3+): 1+ and 0 (2×)
IL-1RAP [1]; Testis
  Staining intensity (0 to 3+): 0
IL-1RAP [1]; Thyroid gland
  Staining intensity (0 to 3+): 0
IL-1RAP [1]; Ureter
  Staining intensity (0 to 3+): 0
IL-1RAP [1]; Uterine cervix
  Staining intensity (0 to 3+): 0
IL-1RAP [2]
  relative fluorescence intensity (RFI) by cytometry: highest
